Measurements published in patent publication US20170016905A1 (VAR2 PHARMACEUTICALS, published 2017).

Target: T1, CSPG (bovine) (D8428, Sigma) (bovine, UniProt P21793 31-360, carries chondroitin sulfate A (CSA) glycosaminoglycan chain(s); the filing attributes the binding of VAR2CSA to this glycan)
T1 construct: also called chondroitin sulfate proteoglycan; CSA proteoglycan
Assay: quartz crystal microbalance (Attana A100), CSPG coated, 1:1 fit

T1 sequence (P21793 31-360): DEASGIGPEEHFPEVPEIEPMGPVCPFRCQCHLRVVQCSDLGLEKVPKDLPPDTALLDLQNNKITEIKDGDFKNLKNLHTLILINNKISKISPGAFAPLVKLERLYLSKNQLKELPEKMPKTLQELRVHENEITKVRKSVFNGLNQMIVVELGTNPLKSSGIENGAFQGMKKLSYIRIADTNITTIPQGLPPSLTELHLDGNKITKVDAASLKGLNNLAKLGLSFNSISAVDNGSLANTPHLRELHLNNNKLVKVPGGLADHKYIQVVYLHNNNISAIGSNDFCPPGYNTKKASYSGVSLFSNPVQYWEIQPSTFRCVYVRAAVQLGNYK

Row | Molecule | Kd [nM]
1 | ID1-DBL2Xb (3D7, Baculo) (other, The start at 16 is derived by me from the forward primer (LSFILN); not shown: V5 and His tag at the C-terminal (modified pAcGP67-A)) LSFILNSSDANNPSEKIQKNNDEVCNCNESGIASVEQEQISDPSSNKTCITHSSIKANKKKVCKHVKLGVRENDKDLRVCVIEHTSLSGVENCCCQDFLRILQENCSDNKSGSSSNGSCNNKNQEACEKNLEKVLASLTNCYKCDKCKSEQSKKNNKNWIWKKSSGKEGGLQKEYANTIGLPPRTQSLCLVVCLDEKGKKTQELKNIRTNSELLKEWIIAAFHEGKNLKPSHEKKNDDNGKKLCKALEYSFADYGDLIKGTSIWDNEYTKDLELNLQKIFGKLFRKYIKKNNTAEQDTSYSSLDELRESWWNTNKKYIWLAMKHGAGMNSTTCCGDGSVTGSGSSCDDIPTIDLIPQYLRFLQEWVEHFCKQRQEKVKPVIENCKSCKESGGTCNGECKTECKNKCEVYKKFIEDCKGGDGTAGSSWVKRWDQIYKRYSKYIEDAKRNRKAGTKNCGPSSTTNAAENKCVQSDIDSFFKHLIDIGLTTPSSYLSIVLDDNICGADKAPWTTYTTYTTTEKCNKETDKSKLQQCNTAVVVNVPSPLGNTPHGYKY | 21.8
2 | ID1-DBL4ε (3D7, Baculo) (other, not shown: V5 and His tag at the C-terminal (modified pAcGP67-A)) LSFILNSSDANNPSEKIQKNNDEVCNCNESGIASVEQEQISDPSSNKTCITHSSIKANKKKVCKHVKLGVRENDKDLRVCVIEHTSLSGVENCCCQDFLRILQENCSDNKSGSSSNGSCNNKNQEACEKNLEKVLASLTNCYKCDKCKSEQSKKNNKNWIWKKSSGKEGGLQKEYANTIGLPPRTQSLCLVVCLDEKGKKTQELKNIRTNSELLKEWIIAAFHEGKNLKPSHEKKNDDNGKKLCKALEYSFADYGDLIKGTSIWDNEYTKDLELNLQKIFGKLFRKYIKKNNTAEQDTSYSSLDELRESWWNTNKKYIWLAMKHGAGMNSTTCCGDGSVTGSGSSCDDIPTIDLIPQYLRFLQEWVEHFCKQRQEKVKPVIENCKSCKESGGTCNGECKTECKNKCEVYKKFIEDCKGGDGTAGSSWVKRWDQIYKRYSKYIEDAKRNRKAGTKNCGPSSTTNAAENKCVQSDIDSFFKHLIDIGLTTPSSYLSIVLDDNICGADKAPWTTYTTYTTTEKCNKETDKSKLQQCNTAVVVNVPSPLGNTPHGYKYACQCKIPTNEETCDDRKEYMNQWSCGSARTMKRGYKNDNYELCKYNGVDVKPTTVRSNSSKLDDKDVTFFNLFEQWNKEIQYQIEQYMTNTKISCNNEKNVLSRVSDEAAQPKFSDNERDRNSITHEDKNCKEKCKCYSLWIEKINDQWDKQKDNYNKFQRKQIYDANKGSQNKKVVSLSNFLFFSCWEEYIQKYFNGDWSKIKNIGSDTFEFLIKKCGNDSGDGETIFSEKLNNAEKKCKENESTNNKMKSSETSCDCSEPIYIRGCQPKIYDGKIFPGKGGEKQWICKDTIIHGDTNGACIPPRTQNLCVGELWDKRYGGRSNIKNDTKESLKQKIKNAIQKETELLYEYHDKGTAIISRNPMKGQKEKEEKNNDSNGLPKGFCHAVQRSFIDYKNMILGTSVNIYEYIGKLQEDIKKIIEKGTTKQNGKTVGSGAENVNAWWKGIEGEMWDAVRCAITKINKKQKKNGTFSIDECGIFPPTGNDEDQSVSWFKEWSEQFCIERLQYEKNIRDACTNNGQGDKIQGDCKRKCEEYKKYISEKKQEWDKQKTKYENKYVGKSASDLLKENYPECISANFDFIFNDNIEYKTYYPYGDYSSICSCEQVKYYEYNNAEKKNNKSLCHEKGNDRTWSKKYIKKLENGRTLEGVYVPPRRQQLCLYELFPIIIKNKNDITNAKKELLETLQIVAEREAYYLWKQYHAHNDTTYLAHKKACCAIRGSFYDLEDIIKGNDLVHDEYTKYIDSKLNEIFDSSNKNDIETKRARTDWWENEAIAVPNITGANKSDPKTIRQLVWDAMQSGVRKAIDEEKEKKKPNENFPPCMGVQHIGIAKPQFIRWLEEWTNEFCEKYTKYFEDMKSNCNLRKGADDCDDNSNIECKKACANYTNWLNPKRIEWNGMSNYYNKIYRKSNKESEDGKDYSMIMEPTVIDYLNKRCNGEINGNYICCSCKNIGENSTSGTVNKKLQKKETQCEDNKGPLDLMNKVLNKMDPKYSEHKMKCTEVYLEHVEEQLKEIDNAIKDYKLYPLD | 9.4
3 | ID1-DBL3ε (3D7, Baculo) (other, not shown: V5 and His tag at the C-terminal (modified pAcGP67-A)) LSFILNSSDANNPSEKIQKNNDEVCNCNESGIASVEQEQISDPSSNKTCITHSSIKANKKKVCKHVKLGVRENDKDLRVCVIEHTSLSGVENCCCQDFLRILQENCSDNKSGSSSNGSCNNKNQEACEKNLEKVLASLTNCYKCDKCKSEQSKKNNKNWIWKKSSGKEGGLQKEYANTIGLPPRTQSLCLVVCLDEKGKKTQELKNIRTNSELLKEWIIAAFHEGKNLKPSHEKKNDDNGKKLCKALEYSFADYGDLIKGTSIWDNEYTKDLELNLQKIFGKLFRKYIKKNNTAEQDTSYSSLDELRESWWNTNKKYIWLAMKHGAGMNSTTCCGDGSVTGSGSSCDDIPTIDLIPQYLRFLQEWVEHFCKQRQEKVKPVIENCKSCKESGGTCNGECKTECKNKCEVYKKFIEDCKGGDGTAGSSWVKRWDQIYKRYSKYIEDAKRNRKAGTKNCGPSSTTNAAENKCVQSDIDSFFKHLIDIGLTTPSSYLSIVLDDNICGADKAPWTTYTTYTTTEKCNKETDKSKLQQCNTAVVVNVPSPLGNTPHGYKYACQCKIPTNEETCDDRKEYMNQWSCGSARTMKRGYKNDNYELCKYNGVDVKPTTVRSNSSKLDDKDVTFFNLFEQWNKEIQYQIEQYMTNTKISCNNEKNVLSRVSDEAAQPKFSDNERDRNSITHEDKNCKEKCKCYSLWIEKINDQWDKQKDNYNKFQRKQIYDANKGSQNKKVVSLSNFLFFSCWEEYIQKYFNGDWSKIKNIGSDTFEFLIKKCGNDSGDGETIFSEKLNNAEKKCKENESTNNKMKSSETSCDCSEPIYIRGCQPKIYDGKIFPGKGGEKQWICKDTIIHGDTNGACIPPRTQNLCVGELWDKRYGGRSNIKNDTKESLKQKIKNAIQKETELLYEYHDKGTAIISRNPMKGQKEKEEKNNDSNGLPKGFCHAVQRSFIDYKNMILGTSVNIYEYIGKLQEDIKKIIEKGTTKQNGKTVGSGAENVNAWWKGIEGEMWDAVRCAITKINKKQKKNGTFSIDECGIFPPTGNDEDQSVSWFKEWSEQFCIERLQYEKNIRDACTNNGQGDKIQGDCKRKCEEYKKYISEKKQEWDKQKTKYENKYVGKSASDLLKENYPECISANFDFIFNDNIEYKTYYPYGDYSSICSCEQVKYYEYNNAE | 8.5
4 | DBL2X-DBL4ε (3D7, Baculo) (other, not shown: V5 and His tag at the C-terminal (modified pAcGP67-A)) LTNCYKCDKCKSEQSKKNNKNWIWKKSSGKEGGLQKEYANTIGLPPRTQSLCLVVCLDEKGKKTQELKNIRTNSELLKEWIIAAFHEGKNLKPSHEKKNDDNGKKLCKALEYSFADYGDLIKGTSIWDNEYTKDLELNLQKIFGKLFRKYIKKNNTAEQDTSYSSLDELRESWWNTNKKYIWLAMKHGAGMNSTTCCGDGSVTGSGSSCDDIPTIDLIPQYLRFLQEWVEHFCKQRQEKVKPVIENCKSCKESGGTCNGECKTECKNKCEVYKKFIEDCKGGDGTAGSSWVKRWDQIYKRYSKYIEDAKRNRKAGTKNCGPSSTTNAAENKCVQSDIDSFFKHLIDIGLTTPSSYLSIVLDDNICGADKAPWTTYTTYTTTEKCNKETDKSKLQQCNTAVVVNVPSPLGNTPHGYKYACQCKIPTNEETCDDRKEYMNQWSCGSARTMKRGYKNDNYELCKYNGVDVKPTTVRSNSSKLDDKDVTFFNLFEQWNKEIQYQIEQYMTNTKISCNNEKNVLSRVSDEAAQPKFSDNERDRNSITHEDKNCKEKCKCYSLWIEKINDQWDKQKDNYNKFQRKQIYDANKGSQNKKVVSLSNFLFFSCWEEYIQKYFNGDWSKIKNIGSDTFEFLIKKCGNDSGDGETIFSEKLNNAEKKCKENESTNNKMKSSETSCDCSEPIYIRGCQPKIYDGKIFPGKGGEKQWICKDTIIHGDTNGACIPPRTQNLCVGELWDKRYGGRSNIKNDTKESLKQKIKNAIQKETELLYEYHDKGTAIISRNPMKGQKEKEEKNNDSNGLPKGFCHAVQRSFIDYKNMILGTSVNIYEYIGKLQEDIKKIIEKGTTKQNGKTVGSGAENVNAWWKGIEGEMWDAVRCAITKINKKQKKNGTFSIDECGIFPPTGNDEDQSVSWFKEWSEQFCIERLQYEKNIRDACTNNGQGDKIQGDCKRKCEEYKKYISEKKQEWDKQKTKYENKYVGKSASDLLKENYPECISANFDFIFNDNIEYKTYYPYGDYSSICSCEQVKYYEYNNAEKKNNKSLCHEKGNDRTWSKKYIKKLENGRTLEGVYVPPRRQQLCLYELFPIIIKNKNDITNAKKELLETLQIVAEREAYYLWKQYHAHNDTTYLAHKKACCAIRGSFYDLEDIIKGNDLVHDEYTKYIDSKLNEIFDSSNKNDIETKRARTDWWENEAIAVPNITGANKSDPKTIRQLVWDAMQSGVRKAIDEEKEKKKPNENFPPCMGVQHIGIAKPQFIRWLEEWTNEFCEKYTKYFEDMKSNCNLRKGADDCDDNSNIECKKACANYTNWLNPKRIEWNGMSNYYNKIYRKSNKESEDGKDYSMIMEPTVIDYLNKRCNGEINGNYICCSCKNIGENSTSGTVNKKLQKKETQCEDNKGPLDLMNKVLNKMDPKYSEHKMKCTEVYLEHVEEQLKEIDNAIKDYKLYPLD | 1.2
5 | DBL1-ID2b (FCR3, Baculo) (other, Range derived by me from the FCR3 DBL1X forward primer (HSDSGK) and the FCR3 ID2b reverse primer (TDTNINK); also called DBL1X-ID2b; not shown: V5 and His tag at the C-terminal (modified pAcGP67-A)) HSDSGKYDPCEKKLPPYDDNDQWKCQQNSSDGSGKPENICVPPRRERLCTYNLENLKFDKIRDNNAFLADVLLTARNEGEKIVQNHPDTNSSNVCNALERSFADLADIIRGTDQWKGTNSNLEKNLKQMFAKIRENDKVLQDKYPKDQKYTKLREAWWNANRQKVWEVITCGARSNDLLIKRGWRTSGKSDRKKNFELCRKCGHYEKEVPTKLDYVPQFLRWLTEWIEDFYREKQNLIDDMERHREECTREDHKSKEGTSYCSTCKDKCKKYCECVKKWKTEWENQENKYKDLYEQNKNKTSQKNTSRYDDYVKDFFEKLEANYSSLENYIKGDPYFAEYATKLSFILNPSDANNPSGETANHNDEACNCNESGISSVGQAQTSGPSSNKTCITHSSIKTNKKKECKDVKLGVRENDKDLKICVIEDTSLSGVDNCCCQDLLGILQENCSDNKRGSSSNDSCDNKNQDECQKKLEKVFASLTNGYKCDKCKSGTSRSKKKWIWKKSSGNEEGLQEEYANTIGLPPRTQSLYLGNLPKLENVCEDVKDINFDTKEKFLAGCLIVSFHEGKNLKKRYPQNKNSGNKENLCKALEYSFADYGDLIKGTSIWDNEYTKDLELNLQNNFGKLFGKYIKKNNTAEQDTSYSSLDELRESWWNTNKKYIWTAMKHGAEMNITTCNADGSVTGSGSSCDDIPTIDLIPQYLRFLQEWVENFCEQRQAKVKDVITNCKSCKESGNKCKTECKTKCKDECEKYKKFIEACGTAGGGIGTAGSPWSKRWDQIYKRYSKHIEDAKRNRKAGTKNCGTSSTTNAAASTDENKCVQSDIDSFFKHLIDIGLTTPSSYLSNVLDDNICGADKAPWTTYTTYTTTEKCNKERDKSKSQSSDTLVVVNVPSPLGNTPYRYKYACQCKIPTNEETCDDRKEYMNQWSCGSARTMKRGYKNDNYELCKYNGVDVKPTTVRSNSSKLDGNDVTFFNLFEQWNKEIQYQIEQYMTNANISCIDEKEVLDSVSDEGTPKVRGGYEDGRNNNTDQGTNCKEKCKCYKLWIEKINDQWGKQKDNYNKFRSKQIYDANKGSQNKKVVSLSNFLFFSCWEEYIQKYFNGDWSKIKNIGSDTFEFLIKKCGNNSAHGEEIFNEKLKNAEKKCKENESTDTNINK | 1.5

Target: CSPG (bovine) (D8428, Sigma) (bovine) (UniProt P21793)
Sequence (P21793 31-360): as the sequence (P21793 31-360) above
Assay: as above

Row | Molecule | Kd [nM]
6 | DBL2X-DBL4ε (FCR3, Baculo) | 2.4
7 | ID1-DBL3ε (FCR3, Baculo) | 0.3
8 | ID1-DBL4ε (FCR3, Baculo) | 8.6
